Experiment [1] deals with T1, gp120451 (gp120 of HIV-1 isolate 451) (HIV-1 isolate 451).
T1 construct: also called soluble monomeric gp120451
The experiment is described as follows: quantitative ELISA (FIG. 7). (In general: ELISA stands for enzyme-linked immunosorbent assay.)

Another experiment concerns the target T2, CD4 protein (UniProt P01730 26-394).
T2 construct: also called soluble CD4
In words: ELISA: m1 phage captured by anti-M13 antibody, incubated with CD4, probed with anti-CD4 mAb.

Where “and” joins values, the source holds several entries; their conditions need not be identical. Identical values can stand only once. Where no end group is shown, it is not given here.

B1: m1 peptide (phage-displayed) (peptide)
peptide: CDRRDLPQWAKREC
modifications: not fully specified (C-terminus); cysteine pairing not given here; also: fused to N terminus of phage pVIII (mosaic fth1 phage)
notes: Tested as a fusion to protein 8 on filamentous phage (fth1 vector, mosaic phage); 12mer flanked by constant cysteines; not shown: fd phage protein 8 (pVIII) display carrier at the peptide's C end
Consider B1, for which the Kd (as a rule, a measure of binding affinity in units of concentration) in experiment [1] is 69 nM and 69.2 nM. Also, in the experiment with CD4 protein, the binding result is on record as “no binding”.

The values are drawn from US20100247558A1 (RAMOT AT TEL AVIV UNIVERSITY, published 2010).
